In patent US6710030:

Experiments:
Assay in all cases: cell-based or functional assay
[1] = molecular target: integrin αvβ5 on cells (T24, T24-β3 neg., OVCAR-5) (human) (UniProt P06756)
[2] = molecular target: integrin receptors on the surface of MDA-MB-435 cells
[3] = molecular target: integrin αvβ3 on cells (T24, MDA-MB-435, β3-transfected 293 cells) (human) (UniProt P06756)
integrin αvβ3 on cells (T24, MDA-MB-435, β3-transfected 293 cells) (human), sequence (P06756 31-1048, chain 1 of 2): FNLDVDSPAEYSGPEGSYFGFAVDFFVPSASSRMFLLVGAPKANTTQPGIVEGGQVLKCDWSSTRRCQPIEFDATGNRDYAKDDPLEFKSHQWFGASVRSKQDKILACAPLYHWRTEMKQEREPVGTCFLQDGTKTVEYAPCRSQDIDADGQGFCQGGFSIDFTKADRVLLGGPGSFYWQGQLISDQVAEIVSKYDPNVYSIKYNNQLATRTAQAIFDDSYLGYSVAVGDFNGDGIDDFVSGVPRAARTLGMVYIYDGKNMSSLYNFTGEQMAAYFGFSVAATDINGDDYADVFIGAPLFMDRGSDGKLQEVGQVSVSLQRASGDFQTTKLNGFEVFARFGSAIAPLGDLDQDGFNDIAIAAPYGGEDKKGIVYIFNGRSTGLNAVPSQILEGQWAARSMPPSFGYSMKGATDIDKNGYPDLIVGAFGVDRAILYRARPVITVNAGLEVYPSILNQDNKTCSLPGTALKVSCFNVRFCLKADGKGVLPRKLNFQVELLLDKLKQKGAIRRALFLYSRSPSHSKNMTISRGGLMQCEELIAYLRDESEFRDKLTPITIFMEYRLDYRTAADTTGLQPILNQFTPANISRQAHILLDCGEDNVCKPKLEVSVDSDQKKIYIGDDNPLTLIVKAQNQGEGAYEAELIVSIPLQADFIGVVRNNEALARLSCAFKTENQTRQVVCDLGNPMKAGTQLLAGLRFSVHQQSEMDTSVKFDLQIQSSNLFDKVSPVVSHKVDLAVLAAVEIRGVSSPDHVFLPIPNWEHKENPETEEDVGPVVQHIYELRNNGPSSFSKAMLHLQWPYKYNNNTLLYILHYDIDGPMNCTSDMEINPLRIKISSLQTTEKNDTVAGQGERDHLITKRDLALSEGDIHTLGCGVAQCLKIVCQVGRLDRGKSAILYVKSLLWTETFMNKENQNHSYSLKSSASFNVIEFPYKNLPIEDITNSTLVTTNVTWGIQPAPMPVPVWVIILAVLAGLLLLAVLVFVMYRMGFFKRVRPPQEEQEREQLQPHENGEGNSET
integrin αvβ3 on cells (T24, MDA-MB-435, β3-transfected 293 cells) (human), sequence (P05106 27-788, chain 2 of 2, further chain): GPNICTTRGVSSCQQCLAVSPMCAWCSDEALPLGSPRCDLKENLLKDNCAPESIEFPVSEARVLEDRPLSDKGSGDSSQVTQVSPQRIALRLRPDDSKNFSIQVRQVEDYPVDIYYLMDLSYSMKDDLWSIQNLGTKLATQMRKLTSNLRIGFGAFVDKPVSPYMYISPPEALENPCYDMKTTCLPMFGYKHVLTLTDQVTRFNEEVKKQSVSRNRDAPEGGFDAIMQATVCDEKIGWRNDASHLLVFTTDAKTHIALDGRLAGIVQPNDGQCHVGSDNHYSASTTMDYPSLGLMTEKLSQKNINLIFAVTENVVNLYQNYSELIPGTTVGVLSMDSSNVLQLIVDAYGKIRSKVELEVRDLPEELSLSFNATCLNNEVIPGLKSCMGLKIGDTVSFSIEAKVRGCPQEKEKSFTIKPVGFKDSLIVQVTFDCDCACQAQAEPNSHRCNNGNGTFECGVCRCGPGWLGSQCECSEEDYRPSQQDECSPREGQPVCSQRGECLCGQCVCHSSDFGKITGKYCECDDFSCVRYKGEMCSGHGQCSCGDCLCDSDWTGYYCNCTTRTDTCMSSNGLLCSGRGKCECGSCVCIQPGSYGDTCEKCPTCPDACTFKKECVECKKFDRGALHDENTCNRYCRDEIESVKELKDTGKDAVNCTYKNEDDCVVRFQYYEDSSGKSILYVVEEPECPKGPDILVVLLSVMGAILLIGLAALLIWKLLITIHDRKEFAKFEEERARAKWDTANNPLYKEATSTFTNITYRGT

integrin αvβ5 on cells (T24, T24-β3 neg., OVCAR-5) (human), sequence (P06756 31-1048, chain 1 of 2): as the sequence (P06756 31-1048, chain 1 of 2) above
integrin αvβ5 on cells (T24, T24-β3 neg., OVCAR-5) (human), sequence (P18084 24-799, chain 2 of 2, further chain): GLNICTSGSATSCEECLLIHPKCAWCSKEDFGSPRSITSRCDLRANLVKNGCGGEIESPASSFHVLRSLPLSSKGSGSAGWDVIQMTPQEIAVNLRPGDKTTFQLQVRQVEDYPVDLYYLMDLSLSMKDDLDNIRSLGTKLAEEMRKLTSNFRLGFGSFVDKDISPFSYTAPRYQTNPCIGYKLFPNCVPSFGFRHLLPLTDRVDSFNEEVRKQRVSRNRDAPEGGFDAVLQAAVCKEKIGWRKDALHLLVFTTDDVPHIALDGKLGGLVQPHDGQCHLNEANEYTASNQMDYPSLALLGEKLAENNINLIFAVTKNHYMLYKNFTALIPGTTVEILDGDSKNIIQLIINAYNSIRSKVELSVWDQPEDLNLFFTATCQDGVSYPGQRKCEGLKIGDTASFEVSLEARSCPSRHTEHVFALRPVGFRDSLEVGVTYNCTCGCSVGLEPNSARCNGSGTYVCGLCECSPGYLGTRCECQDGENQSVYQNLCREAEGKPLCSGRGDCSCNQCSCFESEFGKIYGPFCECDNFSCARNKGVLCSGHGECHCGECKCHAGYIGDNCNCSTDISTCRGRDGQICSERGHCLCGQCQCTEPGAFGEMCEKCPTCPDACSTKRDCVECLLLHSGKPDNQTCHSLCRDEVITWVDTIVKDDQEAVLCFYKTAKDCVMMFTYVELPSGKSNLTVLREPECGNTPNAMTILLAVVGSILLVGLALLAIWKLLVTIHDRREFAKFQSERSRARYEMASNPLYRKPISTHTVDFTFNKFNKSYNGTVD

Q: For P1F6, anti-αvβ5 monoclonal antibody, which inhibition of adhesion of T24-β3 neg. cells to immobilized vitronectin [1] is on record?
A: 80%

Q: And the inhibition of adhesion of T24 cells to immobilized vitronectin [1]?
A: < 40%

Q: With RGD peptide GRGDSP as the substance, how does the inhibition of binding of MDA-MB-435 cells to immobilized CN (IC50) [2] read?
A: 400 µM

Q: For “7E3, murine monoclonal antibody against (GP)IIb/IIIa that also binds αvβ3”, which inhibition of adhesion of T24 cells to immobilized vitronectin [3] is on record?
A: < 40%
